First the molecules themselves.
B1: GST-Rho1 (enzyme)
chain: MATELRRKLVIVGDGACGKTCLLIVFSKGTFPEVYVPTVFENYVADVEVDGRHVELALWDTAGQEDYDRLRPLSYPDSHVILICFAVDSPDSLDNVQEKWISEVLHFCSSLPILLVACKADLRNDPKIIEELSKTNQHPVTTEEGQAVAQKIGAYKYLECSAKTNEGVREVFESATRAAMLKHKPKVKPSSGTKKKKRCILL
B2: hexahistidine (6His)-tagged Gef3 (natural protein)
chain: MSNPRMFQSRGKRVVSDSLPIANSTHTLEDTLKLRPDWTIALSQHETETRSTRTSCSTTTESTIAMRSKQKAIISVLEEFRDSEAAYVHDLHVAQRYYADRLSDRVKKSEWKDVFEIFLVLCKQASLFEIEMHKSLNDEINYILDDQDACLKPKPSVAQLFLSWLPKLSAVYGRYCVIQENIGKKVEKWMKNSSISEYLQECDSMAKIESNSWNLDSFLVKPVQRFLKYPLLLNQLYRSASLGIISDYVLLGEACHKSEIASQRMNELKRRRDIIITALDSVSNSQEVLLLSTDSIDKKIAKLQNSTNIFYVPEHEPILAFVHQLSSSYTNLLNLRSAICDWLKFSRYHYLKFFTFVEAYSVFCKDTKSADKWALISVALDNIAKGAVLRLTEQCQTSVLRPISNGILFFRNPLCVTDVWIKKATAFSKRRQSQVFEEDLESFPLLSNCLLEELPLFLEMARNVTDECILAFAQIQATFYDTIQKVLEPVVAKFNLTDHQDIPSIESIMDFTSLRSSMESSPKSK
B3: GST-Rho5 (enzyme)
chain: MTTELRRKLVIVGDGACGKTCLLIVFSKGTFPEVYVPTVFENYVADVEVDGRHIELALWDTAGQEDYDRLRPLSYPDSHVVLICFSVDAPESLDNVQEKWISEVLHFCSNLPILLVGCKVDLRNDPKTIEELSKTSQKPITFEEGQVVAQKIGAYKYLECSAKLNEGVNEVFETAARASMLKFKPASVPKTKKKKHCILL
B4: GST-Rho4 (enzyme)
chain: MSAFKKSGSKSETSKKLVVVGDGGCGKTCLLIVFSSGTFPERYVPTVFENYITDITYGPNSKVIELALWDTAGQEEYDRLRPLSYPNSNVILLCFSIDCPASLNNVTEKWYPEVQHFCPRTPIVLVGLKADLRKDRNATEVLRTQGLTPVTYQQAQSVALSMNAPYVECSAKENTGVNEVFQLAVGLTIKKSFSFSKKSCVIL
B5: GST-Rho2 (enzyme)
chain: MLQSQPIRRKLVVVGDGACGKTSLLSVFTLGYFPTEYVPTVFENYVSDCRVDGKSVQLALWDTAGQEEYERLRPMSYAKAHIILVGFAIDSPDSLENVSTKWIEEINTLCPNVPFILVGMKADLRSDPVAIEEMRRRNQNFVKSQQAELVAQRIGARKYMECSSLTGDGVDDVFEAATRAALTVRDSENDKSSTKCCIIS

Experiment in all cases: pull-down
Assay [1] concerns the target T1, 3FLAG-Gef3 (S. pombe, UniProt O59679 1-525).
T1 sequence: B2 chain

The target in assay [2] is B2.
The assay “GST-Rho4” addresses B4.
Assay [3] concerns the target T1, 3FLAG-Gef3. This is another data set of the same source.

Read-outs that look alike come from different tables or passages of the source.

On to B1, for which the binding result (with 3FLAG-Gef3 [1]; in assay [2]) was “binds” throughout.

As for B2, the “fold more pulled down than by the GST control” value in the assay with GST-Rho4 was around 35 times.

For the molecule B3, the binding result (in assay [2]; in the assay with 3FLAG-Gef3 [3]) was “binds” in each case.

In the case of B4, the binding result in the assay with 3FLAG-Gef3 [1] is given as “binds”. Regarding B5, the binding result in the assay with 3FLAG-Gef3 [3] was “binds”.

Values taken from PMC4294672 (Molecular Biology of the Cell, 2015).
